Results from article PMC10960667 (Molecular cell, 2024).

Biological target: T1, recombinant full-length IκBζ wild type with 8×His-MBP tag (human, UniProt Q9BYH8-1 1-718)
T1 sequence (looked up): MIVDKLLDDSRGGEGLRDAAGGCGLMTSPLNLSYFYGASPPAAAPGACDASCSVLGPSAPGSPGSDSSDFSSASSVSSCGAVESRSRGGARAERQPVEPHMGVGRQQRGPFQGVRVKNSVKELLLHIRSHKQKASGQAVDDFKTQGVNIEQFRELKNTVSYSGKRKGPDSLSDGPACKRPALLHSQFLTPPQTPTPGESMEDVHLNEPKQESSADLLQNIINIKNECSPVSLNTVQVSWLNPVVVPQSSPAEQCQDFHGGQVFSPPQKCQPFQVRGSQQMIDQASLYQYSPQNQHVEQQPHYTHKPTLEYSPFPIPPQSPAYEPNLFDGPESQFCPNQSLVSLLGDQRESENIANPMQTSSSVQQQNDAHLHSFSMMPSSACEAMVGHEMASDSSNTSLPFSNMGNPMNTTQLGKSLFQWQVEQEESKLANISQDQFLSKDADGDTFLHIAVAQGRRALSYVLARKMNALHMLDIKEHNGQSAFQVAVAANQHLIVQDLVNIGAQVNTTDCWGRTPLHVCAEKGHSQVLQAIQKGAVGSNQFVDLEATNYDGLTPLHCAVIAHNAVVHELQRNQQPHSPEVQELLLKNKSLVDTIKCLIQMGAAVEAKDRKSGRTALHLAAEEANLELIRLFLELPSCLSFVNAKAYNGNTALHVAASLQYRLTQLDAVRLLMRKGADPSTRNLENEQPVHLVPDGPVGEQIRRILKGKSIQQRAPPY
Assay: pull-down

- binding result: binds
B1: recombinant full-length OCT6 with N-terminal 6×His-ECFP tag (natural protein, UniProt Q03052 1-451, looked up)
chain: MATTAQYLPRGPGGGAGGTGPLMHPDAAAAAAAAAAAERLHAGAAYREVQKLMHHEWLGAGAGHPVGLAHPQWLPTGGGGGGDWAGGPHLEHGKAGGGGTGRADDGGGGGGFHARLVHQGAAHAGAAWAQGSTAHHLGPAMSPSPGASGGHQPQPLGLYAQAAYPGGGGGGLAGMLAAGGGGAGPGLHHALHEDGHEAQLEPSPPPHLGAHGHAHGHAHAGGLHAAAAHLHPGAGGGGSSVGEHSDEDAPSSDDLEQFAKQFKQRRIKLGFTQADVGLALGTLYGNVFSQTTICRFEALQLSFKNMCKLKPLLNKWLEETDSSSGSPTNLDKIAAQGRKRKKRTSIEVGVKGALESHFLKCPKPSAHEITGLADSLQLEKEVVRVWFCNRRQKEKRMTPAAGAGHPPMDDVYAPGELGPGGGGASPPSAPPPPPPAALHHHHHHTLPGSVQ
